The source of these data is patent US10781456B2, “Carbon-neutral and carbon-positive photorespiration bypass routes supporting higher photosynthetic rate and yield” (Max-Planck-Gesellschaft zur Förderung der Wissenschaften …, priority 2015, dated 2020).

Holding throughout (format): biochemical
Series [1] deals with glycolyl-CoA. As to the kind of experiment: propionyl-CoA carboxylase ATP hydrolysis assay coupled to PK/LDH, NADH oxidation at 340 nm, product tartronyl-CoA confirmed by UPLC-hrMS (reaction 3#). Here is the method: The activity of the PCCMe_D407I_Y143H protein as well as the PCCMe protein was determined spectrophotometrically at 37° C. The ATP hydrolysis reaction of the respective enzyme was coupled to ATP regeneration by pyruvate kinase (PK) with phosphoenolpyruvate (PEP) and subsequent reduction to lactate by lactate dehydrogenase (LDH). The oxidation of NADH by LDH was followed spectrophotometrically at 340 nm. The reaction mixture (300 μL) contained 200 mM NH4HCO3 buffer, pH 7.7, 5 mM MgCl2, 1 mM ATP, 1 mM PEP, 4 U PK, 5.8 U LDH, 0.3 mM NADH and 48 μg of PCCMe_D407I_Y143H or PCCMe. The reaction was initiated by addition of 1 mM glycolyl-CoA. Samples for UPLC-hrMS were withdrawn and stopped by acidification (5% formic acid) after most of the NADH was consumed. Precipitated protein was removed by centrifugation at 4° C. and 17 000×g. The supernatants were analyzed by UPLC-hrMS as described above. […] As mentioned above, and shown in FIG. 10, the glycolyl-CoA carboxylation activity of the PCCMe_D407I_Y143H enzyme was confirmed by direct detection of the product tartronyl-CoA by UPLC-hrMS.
In a second assay, the reaction mixture was slightly modified for a ^13C labeling experiment. Here, the reaction mixture contained 50 mM NH4HCO3 buffer, pH 7.7 and 150 mM [^13C]NaHCO3, pH 7.7 (otherwise as above-mentioned). […]

Series [2] concerns glycolyl-CoA. The series is described as follows: MCRCa coupled assay: glycolyl-CoA carboxylation by PCC coupled to two step reduction to glycerate by MCRCa (reactions 3#, 4#, 5), HPLC-hrMS and NADPH absorption. The method, then:
In addition to the above mentioned assays also another assay was performed in which the formation of tartronyl-CoA from glycolyl-CoA (reaction 3#) by the PCCMe_D407I_Y143H enzyme was directly coupled to its subsequent two step reduction via tartronate-semialdehyde (reaction 4#) to glycerate (reaction 5) by use of the purified MCRCa (Kröger et al., 2011, loc. cit.). The reaction mixture (300 μL) contained 200 mM NH4HCO3 buffer, pH 7.7, 5 mM MgCl2, 1 mM ATP, 0.4 mM NADPH, 43 μg PCCMe_D407I_Y143H, and 184 μg of MCRCa.
To determine whether MCRCa was able to catalyze the two step reduction of tartonyl-CoA to glycerate (via tartronic semialdehyde), samples of the reaction mixture were withdrawn after all of the NADPH was consumed. The samples were stopped with formic acid (5% final concentration). The acidified samples were centrifuged at 4° C. and 17 000×g and the supernatants were analyzed by HPLC-hrMS.
The formation of glycerate was analyzed using an Agilent 6550 iFunnel Q-TOF LC-MS system equipped with an electrospray ionization source set to negative ionization mode. […]
LC-MS data were analyzed using MassHunter Qualitative Analysis software (Agilent). […] In such assays the tartronate semialdehyde can be covalently derivatized with phenylhydrazine to a phenylhydrazone, which can be detected by its absorbance at 324 nm and confirmed by its corresponding mass spectrum. […]

In a further series the test system is tartronyl-CoA. As to the kind of experiment: malonyl-CoA reductase spectrophotometric assay, NADPH oxidation at 365 nm, tartronyl-CoA into glycerate (reactions 4# and 5). The following applies: 0.25 mM tartronyl-CoA. The method, then: (§1) The kinetics of the MCRCa enzyme for enzymatically converting the substrate tartonyl-CoA into glycerate (via reactions 4# and 5 both catalyzed by MCRCa) were determined spectrophotometrically at 365 nm following the oxidation of NADPH. Per molecule tartronyl-CoA, two molecules of NADPH are oxidized by MCRCa (a first in reaction 4# and a second in reaction 5) The measurements were carried out at 37° C. in a total reaction volume of 200 μL containing 100 mM MOPS buffer (with 5 mM MgCl2, pH 7.5) with an initial NADPH concentration of 0.4 mM NADPH and 23 μg MCRCa.
(§2) An alternative enzyme for catalyzing the conversion of tartonyl-CoA into glycerate (via reactions 4# and 5) is the MCR from Erythrobacter sp. NAP1 (MCRE). It was tested for its activity with malonyl-CoA and for tartronyl-CoA with the assay described above for MCRCa.

Another series deals with malonyl-CoA. As to the kind of experiment: malonyl-CoA reductase activity with physiological substrate malonyl-CoA. Here is the method: as §1
(0.3 mM substrate, Kröger et al. 2011, loc. cit.). With tartronyl-CoA (0.25 mM), the specific activity at 37° C. was 0.6 U mg^−1.
as §2

B1: PCCMe: propionyl-CoA carboxylase of Methylobacterium extorquens, subunits pccA (SEQ ID NO: 2) and pccB (SEQ ID NO: 4) (protein, listed as Methylobacterium extorquens)
alpha: MFDKILIANRGEIACRIIKTAQKMGIKTVAVYSDADRDAVHVAMADEAVHIGPAPAAQSYLLIEKIIDACKQTGAQAVHPGYGFLSERESFPKALAEAGIVFIGPNPGAIAAMGDKIESKKAAAAAEVSTVPGFLGVIESPEHAVTIADEIGYPVMIKASAGGGGKGMRIAESADEVAEGFARAKSEASSSFGDDRVFVEKFITDPRHIEIQVIGDKHGNVIYLGERECSIQRRNQKVIEEAPSPLLDEETRRKMGEQAVALAKAVNYDSAGTVEFVAGQDKSFYFLEMNTRLQVEHPVTEMITGLDLVELMIRVAAGEKLPLSQDQVKLDGWAVESRVYAEDPTRNFLPSIGRLTTYQPPEEGPLGGAIVRNDTGVEEGGEIAIHYDPMIAKLVTWAPTRLEAIEAQATALDAFAIEGIRHNIPFLATLMAHPRWRDGRLSTGFIKEEFPEGFIAPEPEGPVAHRLAAVAAAIDHKLNIRKRGISGQMRDPSLLTFQRERVVVLSGQRFNVTVDPDGDDLLVTFDDGTTAPVRSAWRPGAPVWSGTVGDQSVAIQVRPLLNGVFLQHAGAAAEARVFTRREAELADLMPVKENAGSGKQLLCPMPGLVKQIMVSEGQEVKNGEPLAIVEAMKMENVLRAERDGTISKIAAKEGDSLAVDAVILEFA
beta: MKDILEKLEERRAQARLGGGEKRLEAQHKRGKLTARERIELLLDHGSFEEFDMFVQHRSTDFGMEKQKIPGDGVVTGWGTVNGRTVFLFSKDFTVFGGSLSEAHAAKIVKVQDMALKMRAPIIGIFDAGGARIQEGVAALGGYGEVFRRNVAASGVIPQISVIMGPCAGGDVYSPAMTDFIFMVRDTSYMFVTGPDVVKTVTNEVVTAEELGGAKVHTSKSSIADGSFENDVEAILQIRRLLDFLPANNIEGVPEIESFDDVNRLDKSLDTLIPDNPNKPYDMGELIRRVVDEGDFFEIQAAYARNIITGFGRVEGRTVGFVANQPLVLAGVLDSDASRKAARFVRFCNAFSIPIVTFVDVPGFLPGTAQEYGGLIKHGAKLLFAYSQATVPLVTIITRKAFGGAYDVMASKHVGADLNYAWPTAQIAVMGAKGAVEIIFRAEIGDADKIAERTKEYEDRFLSPFVAAERGYIDEVIMPHSTRKRIARALGMLRTKEMEQPWKKHDNIPL
modifications: [CDS]1..2004 from SEQ ID NO 1; [CDS]1..1533 from SEQ ID NO 3
For the molecule B1, the “glycolyl-CoA carboxylation activity (tartronyl-CoA by UPLC-hrMS)” value with glycolyl-CoA [1] is “exhibited a glycolyl-CoA carboxylation activity, although the activity was lower”. Besides, in the series on glycolyl-CoA [1] (1 mM glycolyl-CoA, 37° C.), the “glycolyl-CoA-dependent ATP hydrolysis rate” value is 0.4 U mg^−1. Further, in the series with glycolyl-CoA [2], the “activity with glycolyl-CoA in the MCRCa coupled assay” value is on record as “no activity could be measured”.

B2: MCRE: malonyl-CoA reductase of Erythrobacter sp. NAP1, NCBI accession no. WP_007163680.1, SEQ ID NO: 10 (protein, listed as Erythrobacter sp.)
chain: MSKEGNAAKGRLEGKVALITGAAGNLGNEISRAFAREGAFVVMTGRTEERISAAREQLIADTGVAPERIDTAVLDGGNPDSIRAAMAKLRKEYGRIDILINNAGSAGPKQPLHNVPLSPQEMEACGDTETVRDAMLNILGVTWNMARIVAPMMPVGGAMVNISTIFSHTRYYGRTAYVVPKAALNALSNQLASELGPRGIRVNTVFPGPIESDRIRTVFAAMDEVQSQPKDTTANYFTGRMALTRSVNGKVDGKPLPNPKDIAGTCLFLASEEAAGIAGEEVDVTHGLSANRTSASTYMTRPSMRSLDGAGLNIFIVSGENWDDALVAAHTLIGSGAKVRLGLARNADVAQANARLKAQGIGEELTVTRFNRAEPDAMEDALAAFSGDVDGAITGAIILPVKPSGHFTGSLLAADDDTVTKFMDTELVGAIAVSRSLARYWHGREDLQSPPRCVFMTNPGDPLGNSFASVLSAGITQLIRIWRDEERVQAGNGSTEHAVWSNQIVRHTNTEDENTRFASGHATRVLFREQHIAEIDLKLPANISEETGSRKAMVGFAENITGLHLGKVAFITGGSAGIGGQVARLLALAGAKVMMVARRESELVAARDRIVGELQDIGFAGVERRVKYMADIDVSDFASLDKAVDATLEEFGRIDYLINNAGVAGAEDMVIDMEPEAWRFTLDANLISNYHLMQRVVPLMKEQGSGYVLNVSSYFGGEKFLAVAYPNRADYGLSKAGQRAMVEAFSPFLGPEVQCNAIAPGPVDGDRLSGTGGKPGLFQRRAKLILENKRLNAVYSAVIHAIREGGDAAKILTRLSRNSTSTLSHDAEAPEELRKLALDFASQGDGLCTWDQYLLTDAMAQRLLVRLQLGGFLLGSNEWASLSSSEQTWLKLSPPDDKPFLPAAQVDKVANGVGKGVISQLHLGAMPTEAEVAQATVFFLADRAVSGETFMPSGGLRVERSNTEREMFGSPKQERIDKMKGKTVWIIGEHLSDYVAATIEELVSGCGVAKVVLIAKDKSGEKAVRDQLPNDLSKDALEVLIAGDGLEEAMDEALGHWGKPTTVLSMPGEPLPDHLFEGGNPLSTKDFAHMVEANITRHYRVTRKASLYDGCQVVLVSPDVPYGSDGPGVALANFVKTSLHAFTATVAVENERLVHDVPVNQINLTRRVSSEEPRDADEHAEELRRFTRAVLLVGAPLPDAQDSRYRSKIYRGTSMTV
modifications: [CDS]1..3654 from SEQ ID NO 9
With B2, the “specific activity for tartronyl-CoA, times lower than that of MCRCa” value with tartronyl-CoA worked out at 6 times. For the same molecule, in the series with tartronyl-CoA (37° C.), the “specific activity with tartronyl-CoA” value came to 0.1 U mg^−1. In addition, the “specific activity for malonyl-CoA, times lower than MCRCa” value in the series with malonyl-CoA was determined as 100 times. Moreover, the “specific activity with malonyl-CoA” value with malonyl-CoA (0.25 mM malonyl-CoA) is recorded as 0.1 U mg^−1.
